Laboratory results taken from patent publication US11008402 (dated 2021).
“And” between values parts separate entries of the source, which are not always exact repeats. Identical values can stand only once. Like-named read-outs stand apart in the source and are kept apart here.

What was measured:
HER3 (cell surface) [1] = molecular target: HER3 (cell surface) (human); assay: FACS, MCF-7
HER3-His ECD [2] = molecular target: HER3-His ECD (human); assay: ELISA
HER3 (cell surface) [3] = molecular target: HER3 (cell surface) (human); assay: FACS, FaDu
HER3 (cell surface) [4] = molecular target: HER3 (cell surface) (human); assay: FACS, SKBR-3
HER3-His ECD [5] = molecular target: HER3-His ECD (human); assay: ELISA; remark: listed apart in the source
HER3 20-531-Fc = HER3 20-531-Fc (human); assay: ELISA
HER3 329-550-Fc = molecular target: T1, HER3 329-550-Fc (human); assay: ELISA
T1 chain: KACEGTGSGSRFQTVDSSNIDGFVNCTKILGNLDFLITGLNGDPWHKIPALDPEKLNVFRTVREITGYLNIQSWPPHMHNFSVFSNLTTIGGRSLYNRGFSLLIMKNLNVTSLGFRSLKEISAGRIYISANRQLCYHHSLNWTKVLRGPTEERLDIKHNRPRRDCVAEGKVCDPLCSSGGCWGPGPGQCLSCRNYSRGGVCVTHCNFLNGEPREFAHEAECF

HER3 (cell surface) [6] = molecular target: HER3 (cell surface) (human); assay: FACS, FaDu; remark: listed apart in the source
HER3 359-587-Fc = molecular target: T2, HER3 359-587-Fc (human); assay: ELISA
T2 chain: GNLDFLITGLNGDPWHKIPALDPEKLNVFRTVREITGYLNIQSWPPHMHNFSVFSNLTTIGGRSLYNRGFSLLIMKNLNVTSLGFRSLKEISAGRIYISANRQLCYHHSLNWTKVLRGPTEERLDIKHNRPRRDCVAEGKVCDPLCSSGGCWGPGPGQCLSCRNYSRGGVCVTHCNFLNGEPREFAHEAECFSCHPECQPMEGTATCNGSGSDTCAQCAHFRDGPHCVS

HER3-Fc ECD [7] = molecular target: HER3-Fc ECD (human); assay: other, QCM Attana bivalent
HER3-Fc ECD [8] = molecular target: HER3-Fc ECD (human); assay: ELISA
HER3 (cell surface) [9] = molecular target: HER3 (cell surface) (human); assay: FACS, FaDu; remark: listed apart in the source
HER3 395-643-Fc = molecular target: T3, HER3 395-643-Fc (human); assay: ELISA
T3 chain: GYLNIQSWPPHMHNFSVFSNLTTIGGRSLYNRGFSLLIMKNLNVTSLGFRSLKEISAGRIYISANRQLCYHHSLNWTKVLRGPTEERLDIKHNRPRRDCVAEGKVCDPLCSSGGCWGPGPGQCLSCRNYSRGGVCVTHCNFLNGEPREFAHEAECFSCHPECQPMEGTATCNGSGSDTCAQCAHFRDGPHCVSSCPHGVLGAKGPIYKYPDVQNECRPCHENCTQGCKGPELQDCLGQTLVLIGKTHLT

HER3 20-550-Fc = HER3 20-550-Fc (human); assay: ELISA
HER3 359-643-Fc = molecular target: T4, HER3 359-643-Fc (human); assay: ELISA
T4 chain: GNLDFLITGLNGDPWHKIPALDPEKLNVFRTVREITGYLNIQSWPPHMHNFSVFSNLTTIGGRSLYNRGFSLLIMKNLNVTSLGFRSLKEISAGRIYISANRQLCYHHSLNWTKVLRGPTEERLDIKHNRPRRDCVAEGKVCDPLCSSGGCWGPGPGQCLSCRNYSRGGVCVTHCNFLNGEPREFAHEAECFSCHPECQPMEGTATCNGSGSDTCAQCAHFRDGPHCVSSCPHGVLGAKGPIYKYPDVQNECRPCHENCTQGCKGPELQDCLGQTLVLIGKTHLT

HER3 DIV-Fc = molecular target: T5, HER3 DIV-Fc (human); assay: ELISA
T5 chain: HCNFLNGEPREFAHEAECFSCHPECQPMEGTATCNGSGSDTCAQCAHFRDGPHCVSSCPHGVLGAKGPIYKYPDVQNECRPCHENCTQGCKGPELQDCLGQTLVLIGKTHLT

HER3-His ECD [10] = molecular target: HER3-His ECD (human); assay: ELISA; remark: listed apart in the source
HER3 458-643-Fc = molecular target: T6, HER3 458-643-Fc (human); assay: ELISA
T6 chain: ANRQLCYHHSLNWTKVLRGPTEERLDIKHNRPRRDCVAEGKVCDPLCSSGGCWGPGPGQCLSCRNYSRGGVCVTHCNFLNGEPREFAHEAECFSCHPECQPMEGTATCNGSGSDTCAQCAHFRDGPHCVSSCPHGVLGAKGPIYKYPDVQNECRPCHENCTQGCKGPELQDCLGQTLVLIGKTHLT

HER3 20-358-Fc = molecular target: T7, HER3 20-358-Fc (human); assay: ELISA
T7 chain: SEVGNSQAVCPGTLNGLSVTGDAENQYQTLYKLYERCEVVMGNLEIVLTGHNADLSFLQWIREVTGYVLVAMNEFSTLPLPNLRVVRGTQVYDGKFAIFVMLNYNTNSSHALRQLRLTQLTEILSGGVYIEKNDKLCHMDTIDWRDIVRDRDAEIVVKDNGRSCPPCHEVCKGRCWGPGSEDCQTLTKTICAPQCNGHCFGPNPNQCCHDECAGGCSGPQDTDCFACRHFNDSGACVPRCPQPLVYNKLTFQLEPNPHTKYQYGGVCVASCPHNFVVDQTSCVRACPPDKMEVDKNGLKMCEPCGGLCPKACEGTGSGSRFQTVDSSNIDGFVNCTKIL

HER3-His ECD [11] = molecular target: HER3-His ECD (human); assay: other, QCM Attana 25C

B1: IgG 3-43 (antibody, V domains shown)
VH: QVQLQQSGPGLVKPSQTLSLTCAISGDSVSSNRAAWNWIRQSPSRGLEWLGRTYYRSKWYNDYAQSLKSRITINPDTPKNQFSLQLNSVTPEDTAVYYCARDGQLGLDALDIWGQGTMVTVSS
VL: QAGLTQPPAVSVAPGQTASITCGRDNIGSRSVHWYQQKPGQAPVLVVYDDSDRPAGIPERFSGSNYENTATLTISRVEAGDEADYYCQVWGITSDHVVFGGGTKLTVLG
B1 showed an EC50 (HER3 (cell surface) [1]) of 0.021 nM, an EC50 (HER3-His ECD [2]) of 0.33 nM and an EC50 (HER3 (cell surface) [3]) of 0.003 nM. For the same binder, the EC50 (HER3 (cell surface) [4]) was 0.022 nM, the EC50 (HER3-His ECD [5]) was 0.23 nM and the binding result (HER3 20-531-Fc) was “no binding”. For the same binder, the binding result (HER3 329-550-Fc) was “no binding”, the EC50 (HER3 (cell surface) [6]) was 0.006 nM and the binding result (HER3 359-587-Fc) was “no binding”. The Kd (HER3-Fc ECD [7]) was 0.22 nM, the EC50 (HER3-Fc ECD [8]) was 0.27 nM and 0.4 nM and the EC50 (HER3 (cell surface) [9]) was 0.3 nM. B1: no binding (HER3 395-643-Fc); no binding (HER3 20-550-Fc); no binding (HER3 359-643-Fc). The binding result (HER3 DIV-Fc) was “no binding”, the EC50 (HER3-His ECD [10]) was 0.33 nM and 0.54 nM and the binding result (HER3 458-643-Fc) was “no binding”. The binding result (HER3 20-358-Fc) was “no binding” and the Kd (HER3-His ECD [11]) was 11.2 nM.
